The text below walks through data of patent CN112521508A (BEIJING GUANGWEI BIOTECHNOLOGY CO LTD, dated 2021).

This test has as its target T1, 人CD20蛋白 (human CD20) (human, UniProt P11836 1-297, limits assumed).
T1 construct: its title names human CD20; also called 抗原
T1 sequence (looked up): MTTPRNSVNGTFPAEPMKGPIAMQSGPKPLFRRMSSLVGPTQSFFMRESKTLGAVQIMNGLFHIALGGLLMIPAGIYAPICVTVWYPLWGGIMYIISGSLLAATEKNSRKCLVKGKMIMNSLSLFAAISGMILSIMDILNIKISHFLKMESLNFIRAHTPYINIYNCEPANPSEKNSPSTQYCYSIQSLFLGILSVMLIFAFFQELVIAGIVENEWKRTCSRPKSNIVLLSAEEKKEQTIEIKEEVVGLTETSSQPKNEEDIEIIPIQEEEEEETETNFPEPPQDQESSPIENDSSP
Kind of test: SPR (CM5 chip), antibody captured by anti-human capture antibody, antigen as analyte.

B1: Rituximab (antibody, V domains shown)
VH: QVQLQQPGAELVKPGASVKMSCKASGYTFTSYNMHWVKQTPGRGLEWIGAIYPGNGDTSYNQKFKGKATLTADKSSSTAYMQLSSLTSEDSAVYYCARSTYYGGDWYFNVWGAGTTVTVSA
VL: QIVLSQSPAILSASPGEKVTMTCRASSSVSYIHWFQQKPGSSPKPWIYATSNLASGVPVRFSGSGSGTSYSLTISRVEAEDAATYYCQQWTSNPPTFGGGTKLEIK
Consider B1, for which the affinity, expressed as Kd, was 5.46 nM; the koff was 0.000345 s⁻¹; the on-rate constant (kon) turned out to be 63100 M⁻¹ s⁻¹.

B2: hG7B2-IgG1 (antibody, V domains shown)
VH: QVQLVQSGGEVKKPGASVKVSCKTSGYRFTSGKNAVWVRQAPGQGLEWMGGIATGKFNLSVDLQGRLTLTTDTSTSTAYMELGSLRPDDTAVYYCTRDIRLYAGDYWGQGTLVTVSS
VL: DIVLTQPASVSGSPGQSVTISCSAIDGNCFNKVSWYQQHPGKAPKLMIYDASKRCTGIPERFSGSNSGNTATLTISRVEAGDEADYYCQAASKDAPITTFGRGTKLTVL
The molecule B2 showed a Kd of 0.215 nM, a koff of 5.31e-05 s⁻¹ and a kon of 246000 M⁻¹ s⁻¹.

In general, Kd refers to the concentration at which binding is half-saturated. Lower therefore signals higher affinity. Usually koff stands for a measure of how fast the partners let go of each other. A low value points to slow dissociation. A word on the kon: it is the second-order rate constant of association. A lower kon goes with slow association.
